According to patent CN112812179A (UNIV BEIJING, dated 2021):
Blank lines part the entries; values can stand above or below the binder they belong to.

Columns and labels:
[1] = target: T1, 人CMTM6氨基酸序列2到24位氨基酸的多肽 (CMTM6 N2-24) (human, UniProt Q9NX76 2-24, C末端耦联BSA (the BSA conjugate is the one made for ELISA, paragraph 46; the KLH conjugate was used for immunisation)); experiment: indirect ELISA, serially diluted peptide coated on the plate
T1 construct: range 2-24; also called CMTM6 N2-24多肽; BSA耦联的CMTM6 N2-24多肽
T1 peptide (looked up): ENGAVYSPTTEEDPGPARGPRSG

[2] = target: T2, 人CMTM6 (endogenous, in 786-O cells and colon cancer tissue) (human, UniProt Q9NX76 1-183); experiment: Western blot of 786-O lysates, compared with CMTM6 knockout clones 2E7 and 4D10
T2 construct: whole, on cells
T2 sequence (looked up): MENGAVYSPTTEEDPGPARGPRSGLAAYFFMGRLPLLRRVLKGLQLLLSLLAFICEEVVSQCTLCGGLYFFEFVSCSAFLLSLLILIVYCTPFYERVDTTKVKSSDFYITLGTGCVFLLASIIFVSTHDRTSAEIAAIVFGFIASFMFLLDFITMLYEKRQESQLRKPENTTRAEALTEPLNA

[3] = target: T3, Flag-CMTM6 (overexpressed in HEK293T cells) (human, UniProt Q9NX76 1-183); experiment: Western blot of HEK293T lysates, 1 ug/mL primary antibody; empty-vector control gave no signal
T3 construct: Detected in denatured cell lysate by Western blot; the band is 26 kD; also called Flag-CMTM6融合表达载体; not shown: Flag tag
T3 sequence (looked up): T2 sequence (looked up)

binding result [1]: binds
B1: 1-19重链(HC)和轻链(LC)超表达上清 (recombinant 1-19 from HEK293T cells co-transfected with heavy and light chain plasmids) (antibody, V domains shown)
VH: EVQLQQSGAELVKPGASVKLSCASSGFNIKDTYIHWVKRRPEQGLEWIGRIDPANGKTYFHSNFQGKATITADTSSNTAHLELSSLTSEDTAVYYCAFLYDGPIDYWGQGTSVTVSS
VL: DVLMTQTPLSLPVSLGDQASISCRSSQSIVYRDGNTYLDWYLQKPGQSPKLLIYKVSNRFSGVPDRFSGSGSGTDFTLKISRVEAEDLGVYYCFQGSLFPYTFGGGTKLEI
notes: Full-length light and heavy chains amplified from 1-19 hybridoma cDNA, cloned into pcDNA3.1 and expressed in HEK293T; see the note of m1 for the printed FR/CDR pieces; also called 共转染本发明抗体1-19重轻链质粒的HEK293T细胞上清

binding result [2]: binds
binding result [3]: binds
B2: 鼠抗人CMTM6单克隆抗体1-19 (purified from hybridoma supernatant) (antibody, V domains shown)
VH: B1 VH
VL: B1 VL
notes: also called 1-19mAb; 本发明抗体1-19
